Results as given in US20110171220A1 (published 2011).

molecular target: Monomeric soluble human PD-1 (human, UniProt Q15116 25-170); assay: SPR; pH 7.4
Sequence (Q15116 25-170): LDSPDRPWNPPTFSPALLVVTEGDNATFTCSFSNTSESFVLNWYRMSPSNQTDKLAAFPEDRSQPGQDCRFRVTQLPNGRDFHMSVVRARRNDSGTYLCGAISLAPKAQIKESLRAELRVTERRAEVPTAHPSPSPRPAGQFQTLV

koff [s⁻¹] | Binder
~0.4 | Clone 10 anti-PD-1 antibody (antibody, V domains shown) VH: DVQLQESGPGLVKPSQSLSLTCTVTGYSITSDYAWNWIRQFPGNKLEWMGYINYSGSTSYNPSLKSRISITRDTSKNQFFLQLNSVTTEDTATYYCARWIGSSAWYFDVWGAGTTVTV VL: DVLMTQTPLSLPVSLGDQASISCRSGQNIVHSNGNTYLEWYLQKPGQSPKLLIYKVSNRFFGVPDRISGSGSGTDFTLKISRVEAEDLGVYFCFQGSHVPFTFGSGTKLEIK
~0.0013 | Clone 19 anti-PD-1 antibody (antibody, V domains shown) VH: QVQLQQSGAELVKPGASVKMSCKAFGYTFTTYPIEWMKQNHGKSLEWIGNFHPYNDDTKYNEKFKGKAKLTVEKSSTTVYLELSRLTSDDSAVYYCARENYGSHGGFVYWGQGTLVTV VL: ENVLTQSPAIMSASPGEKVTMTCRASSSVISSYLHWYQQKSGASPKLWIYSTSNLASGVPDRFSGSGSGTSYSLTISSVEAEDAATYYCQQYNGYPLTFGAGTKLEIK
~0.0027 | Clone 2 anti-PD-1 antibody (antibody, V domains shown) VH: QVQLQQPGAELVKPGASVKLSCKASGYTFTTYYLYWVRQRPGQGLEWIGGINPSNGGTNFNEKFKSKATLTVDKSSSTAYMQLNSLTSEDSAVYYCTRRDYRYDRGFDYWGQGTSVTV VL: DIVLTQSPASLAVSLGQRATISCRASKSVSTSGFNYIHWYQQKPGQPPKLLIYLASNLESGVPARFSGSGSGTDFTLNIHPVEDEDAATYYCQHSRELPLTFGAGTKLEIK
